Experimental data as given in patent publication US20180155451A1 (published 2018).
Numbering of substitutions follows the chain as printed. Names and notes keep the numbering of the source. Read-outs that look alike come from different tables or passages of the source. Each block holds one binder with its values, some of them ahead of it.

Key:
[1] = target: T1, FcgRIIb extracellular domain with C-terminal His tag (human, UniProt P31994 43-217); assay: SPR (Biacore) KD ratio against the template H240-Kn061/H240-Hl071/L73-k0
T1 construct: extracellular domain; also called FcγRIIb; not shown: His tag attached to the C terminus
T1 sequence (looked up): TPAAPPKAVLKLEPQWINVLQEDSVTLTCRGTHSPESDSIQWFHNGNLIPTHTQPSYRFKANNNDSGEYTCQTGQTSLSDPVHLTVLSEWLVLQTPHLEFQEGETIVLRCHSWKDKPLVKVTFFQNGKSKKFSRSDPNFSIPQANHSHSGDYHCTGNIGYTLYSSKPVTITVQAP
Procedure: (§1) The antibodies were assessed for the binding to each FcgR. […] The resultant value was defined as relative KD, and used as an assessment indicator.
(§2) Analysis of interaction between obj ective antibody and the FcγR was carried out using Biacore T100 (GE Healthcare), Biacore T200, Biacore A100, and Biacore 4000. HBS-EP+ (GE Healthcare) was used as the running buffer, and the measurement temperature was set to 25° C. Chips produced by immobilizing the antigen peptide by the amine coupling method to a Series S sensor Chip CM5 (GE Healthcare), chips produced by allowing preliminarily biotinylated antigen peptides to interact with and immobilize onto a Series S Sensor Chip SA (certified) (GE Healthcare), chips produced by immobilizing Protein L (ACTIGEN, BioVision) to Series S Sencor Chip CM5 (GE Healthcare), or chips produced by immobilizing Protein A/G (Thermo Scientific) to Series S Sencor Chip CM5 (GE Healthcare) were used. Antibodies of interest were captured onto these chips, and allowed to interact to each FcγR diluted with running buffer.

[2] = target: T2, FcgRIIa R extracellular domain with C-terminal His tag (human, UniProt P12318 34-217); assay: as above
T2 construct: extracellular domain; also called FcγRIIa R; FcγRIIa type R; not shown: His tag attached to the C terminus
T2 sequence (looked up): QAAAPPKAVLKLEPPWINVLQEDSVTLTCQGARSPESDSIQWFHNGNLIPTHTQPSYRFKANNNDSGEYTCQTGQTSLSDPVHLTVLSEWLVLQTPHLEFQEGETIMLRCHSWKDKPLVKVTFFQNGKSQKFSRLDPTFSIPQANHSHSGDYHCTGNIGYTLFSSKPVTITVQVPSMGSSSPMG
Procedure: as §1, §2

[3] = target: T3, FcgRIIIa F extracellular domain with C-terminal His tag (human, UniProt P08637 17-208); assay: as above
T3 construct: extracellular domain; also called FcγRIIIa F; FcγRIIIa (F158); not shown: His tag attached to the C terminus
Procedure: as §1, §2

[4] = target: T4, FcgRIIa H extracellular domain with C-terminal His tag (human, UniProt P12318 34-217); assay: as above
T4 construct: extracellular domain; also called FcγRIIa H; FcγRIIa type H; not shown: His tag attached to the C terminus
T4 sequence (looked up): T2 sequence (looked up) with R134H
Procedure: as §1, §2

[5] = target: T5, FcgRIIIa V extracellular domain with C-terminal His tag (human, UniProt P08637 17-208); assay: as above
T5 construct: extracellular domain; also called FcγRIIIa V; FcγRIIIa (V158); not shown: His tag attached to the C terminus
Procedure: as §1, §2

[6] = target: T6, FcgRIIa H (human, UniProt P12318 34-217); assay: SPR (Biacore), antibody captured on chip, FcgR extracellular domain as analyte
T6 construct: extracellular domain; also called FcγRIIa H; FcγRIIa type H; not shown: His tag attached to the C terminus
T6 sequence (looked up): T2 sequence (looked up) with R134H
Procedure: (§3) Specifically, H240-Kn120 (SEQ ID NO: 99) resulting from introduction of S239M into H240-Kn067 and H240-Kn126 (SEQ ID NO: 100) resulting from introduction of Y235Q into H240-Kn120 were prepared according to the method described in Reference Example 1. […] Those described above were assayed for the binding to each FcgR according to the method described in Reference Example 8.
as §2, with “buffer. To regenerate and repeatedly use the chip, the antibodies captured onto the chip were washed off by reacting 10 mM glycine-HCl, pH 1.5.” for “buffer.”

[7] = target: T7, FcgRIIa R (human, UniProt P12318 34-217); assay: as above
T7 construct: extracellular domain; also called FcγRIIa R; FcγRIIa type R; not shown: His tag attached to the C terminus
T7 sequence (looked up): T2 sequence (looked up)
Procedure: as §3
as §2, with “buffer. To regenerate and repeatedly use the chip, the antibodies captured onto the chip were washed off by reacting 10 mM glycine-HCl, pH 1.5.” for “buffer.”

[8] = target: T8, FcgRIIIa V (human, UniProt P08637 17-208); assay: as above
T8 construct: extracellular domain; also called FcγRIIIa V; not shown: His tag attached to the C terminus
Procedure: as §3
as §2, with “buffer. To regenerate and repeatedly use the chip, the antibodies captured onto the chip were washed off by reacting 10 mM glycine-HCl, pH 1.5.” for “buffer.”

[9] = target: T9, FcgRIIIa F (human, UniProt P08637 17-208); assay: as above
T9 construct: extracellular domain; also called FcγRIIIa F; not shown: His tag attached to the C terminus
Procedure: as §3
as §2, with “buffer. To regenerate and repeatedly use the chip, the antibodies captured onto the chip were washed off by reacting 10 mM glycine-HCl, pH 1.5.” for “buffer.”

[10] = target: T10, FcgRIa (human, UniProt P12314 16-292); assay: as above
T10 construct: extracellular domain; Expressed in FreeStyle293 cells and purified; used as analyte in Biacore; also called FcγRIa; FcγRI; not shown: His tag attached to the C terminus
Procedure: as §3
as §2, with “buffer. To regenerate and repeatedly use the chip, the antibodies captured onto the chip were washed off by reacting 10 mM glycine-HCl, pH 1.5.” for “buffer.”

[11] = target: T11, FcgRIIb (human, UniProt P31994 43-217); assay: as above
T11 construct: extracellular domain; Expressed in FreeStyle293 cells and purified; used as analyte in Biacore; also called FcγRIIb; CD32B; not shown: His tag attached to the C terminus
T11 sequence (looked up): T1 sequence (looked up)
Procedure: as §3
as §2, with “buffer. To regenerate and repeatedly use the chip, the antibodies captured onto the chip were washed off by reacting 10 mM glycine-HCl, pH 1.5.” for “buffer.”

[12] = target: T6, FcgRIIa H; assay: as above; remark: listed apart in the source
Procedure: as §2, with “buffer. To regenerate and repeatedly use the chip, the antibodies captured onto the chip were washed off by reacting 10 mM glycine-HCl, pH 1.5.” for “buffer.”

[13] = target: T7, FcgRIIa R; assay: as above; remark: listed apart in the source
Procedure: as §2, with “buffer. To regenerate and repeatedly use the chip, the antibodies captured onto the chip were washed off by reacting 10 mM glycine-HCl, pH 1.5.” for “buffer.”

[14] = target: T8, FcgRIIIa V; assay: as above; remark: listed apart in the source
Procedure: as §2, with “buffer. To regenerate and repeatedly use the chip, the antibodies captured onto the chip were washed off by reacting 10 mM glycine-HCl, pH 1.5.” for “buffer.”

[15] = target: T9, FcgRIIIa F; assay: as above; remark: listed apart in the source
Procedure: as §2, with “buffer. To regenerate and repeatedly use the chip, the antibodies captured onto the chip were washed off by reacting 10 mM glycine-HCl, pH 1.5.” for “buffer.”

T8 sequence (P08637 17-208 F176V limits assumed): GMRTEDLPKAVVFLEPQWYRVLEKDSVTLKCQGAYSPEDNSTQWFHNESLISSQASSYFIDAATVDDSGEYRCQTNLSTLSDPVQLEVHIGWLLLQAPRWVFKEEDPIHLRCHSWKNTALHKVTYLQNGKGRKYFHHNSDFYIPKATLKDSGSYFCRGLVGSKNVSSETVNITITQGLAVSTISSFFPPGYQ
T9 sequence (P08637 17-208): as the sequence (P08637 17-208 F176V limits assumed) above, with V160F counted along it
T10 sequence (P12314 16-292): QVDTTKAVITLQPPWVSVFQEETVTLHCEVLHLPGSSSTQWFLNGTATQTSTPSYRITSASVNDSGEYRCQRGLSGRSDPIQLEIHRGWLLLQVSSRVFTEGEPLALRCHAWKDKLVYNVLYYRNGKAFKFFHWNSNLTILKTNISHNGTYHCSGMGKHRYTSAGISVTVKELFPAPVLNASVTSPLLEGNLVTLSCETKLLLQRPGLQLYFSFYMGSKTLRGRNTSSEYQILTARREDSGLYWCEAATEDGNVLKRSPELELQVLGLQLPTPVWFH
T5 sequence (P08637 17-208 F176V): as the sequence (P08637 17-208 F176V limits assumed) above
T3 sequence (P08637 17-208): as the sequence (P08637 17-208 F176V limits assumed) above, with V160F counted along it

relative KD (KD of H240-Kn061/H240-Hl071/L73-k0 / KD of variant) [1]: 0.7 | relative KD (KD of H240-Kn061/H240-Hl071/L73-k0 / KD of variant) [2]: 1 | relative KD (KD of H240-Kn061/H240-Hl071/L73-k0 / KD of variant) [3]: 1.3 | relative KD (KD of H240-Kn061/H240-Hl071/L73-k0 / KD of variant) [4]: 0.7 | relative KD (KD of H240-Kn061/H240-Hl071/L73-k0 / KD of variant) [5]: 2
B1: H240-Kn061/H240-Hl071/L73-k0 variant with Y235N introduced into H240-Kn061 (antibody, human IgG1, kappa)
heavy 1: QDQLVQSGAEVKKPGASVKVSCKASGFNIKDTYIQWVRQAPGQGLEWMGRIDPLRKQTKYREKFEGRVTITADTSTNTAYMELSSLRSEDTAVYYCVRSGREFDYWGQGTLVTVSSASTKGPSVFPLAPSSKSTSGGTAALGCLVKDYFPEPVTVSWNSGALTSGVHTFPAVLQSSGLYSLSSVVTVPSSSLGTQTYICNVNHKPSNTKVDKKVEPKSCDKTHTCPPCPAPEYNWGPSVFLFPPKPKDTLMISRTPEVTCVVVDVSDEDPEVKFNWYVDGVEVHNAKTKPREEQYNATYRVVSVLTVLHQDWLNGKEYKCKVSNKALPAPIEKTISKAKGQPREPQVCTLPPSRDELTKNQVSLWCLVKGFYPSDIAVEWESNGQPENNYKTTPPVLDSDGSFFLYSKLTVDKSRWQQGNVFSCSVMHEALHNHYTQKSLSLSP
heavy 2: QDQLVQSGAEVKKPGASVKVSCKASGFNIKDTYIQWVRQAPGQGLEWMGRIDPLRKQTKYREKFEGRVTITADTSTNTAYMELSSLRSEDTAVYYCVRSGREFDYWGQGTLVTVSSASTKGPSVFPLAPSSKSTSGGTAALGCLVKDYFPEPVTVSWNSGALTSGVHTFPAVLQSSGLYSLSSVVTVPSSSLGTQTYICNVNHKPSNTKVDKKVEPKSCDKTHTCPPCPAPELLGGPSVFLFPPKPKDTLMISRTPEVTCVVVDVSHEDPEVKFNWYVDGVEVHNAKTKPREEQYNSTYRVVSVLTVLHQDWLNGKEYKCKVSNDALPMPIEETISKAKGQPREPQVYTLPPSRCELTKNQVSLSCAVKGFYPSDIAVEWESNGQPENNYKTTPPVLDSDGSFFLVSKLTVDKSRWQQGNVFSCSVMHEALHNHYTQKSLSLSP
light: DIQMTQSPSSLSASVGDRVTITCRASQDIHKYIAWYQQKPGQAPRLLIQYTSTLQPGVPSRFSGSGSGTDYTFTISSLQPEDIATYYCLQYEQLRTFGGGTKVEIKRTVAAPSVFIFPPSDEQLKSGTASVVCLLNNFYPREAKVQWKVDNALQSGNSQESVTEQDSKDSTYSLSSTLTLSKADYEKHKVYACEVTHQGLSSPVTKSFNRGEC
notes: Point variant made with H240-Kn061/H240-Hl071/L73-k0 as template; position by EU numbering; also called H240-Kn061 Y235N

Kd [6]: 46 nM | Kd [7]: 29 nM | Kd [8]: 6.8 nM | Kd [9]: 21 nM | Kd [10]: 0.098 nM | Kd [11]: 380 nM
B2: H240-Kn037/H240-Hl036/L73-k0 (antibody, human IgG1, kappa)
heavy 1: B1 heavy 1 with Y233L, N234L, W235A, S238D, D267H, A297S, I331E
heavy 2: B1 heavy 2 with G235A, S238D, D325K, M329A, I331E, E333K
light: B1 light
notes: this is a derivation

Kd [6]: 94 nM | Kd [7]: 49 nM | Kd [8]: 1.6 nM | Kd [9]: 7.1 nM | Kd [10]: 0.26 nM | Kd [11]: 370 nM | Kd [12]: 94 nM | Kd [13]: 49 nM | Kd [14]: 1.6 nM | Kd [15]: 7.1 nM
B3: H240-Kn067/H240-Hl068/L73-k0 (antibody, human IgG1, kappa)
heavy 1: B1 heavy 1 with N234Y, A326D
heavy 2: B1 heavy 2 with D269E, M329K
light: B1 light
notes: Heterodimerized anti-EREG IgG1: L234Y/L235Y/G236W/H268D/S298A/A327D in Kn067, D270E/K326D/A330K/K334E in Hl068; also called H240-Kn067/H240-HI068/L73-k0

Kd [6]: 59 nM | Kd [7]: 17 nM | Kd [8]: 0.66 nM | Kd [9]: 2.4 nM | Kd [10]: 0.37 nM | Kd [11]: 150 nM
B4: H240-Kn120/H240-Hl068/L73-k0 (antibody, human IgG1, kappa)
heavy 1: B1 heavy 1 with N234Y, S238M, A326D
heavy 2: B1 heavy 2 with D269E, M329K
light: B1 light
notes: Heterodimerized anti-EREG IgG1: Kn120 is H240-Kn067 with S239M

Kd [6]: 170 nM | Kd [7]: 76 nM | Kd [8]: 0.64 nM | Kd [9]: 3.7 nM | Kd [10]: 0.4 nM | Kd [11]: 520 nM
B5: H240-Kn126/H240-Hl068/L73-k0 (antibody, human IgG1, kappa)
heavy 1: B1 heavy 1 with N234Q, S238M, A326D
heavy 2: B1 heavy 2 with D269E, M329K
light: B1 light
notes: Heterodimerized anti-EREG IgG1: Kn126 is H240-Kn120 with Y235Q
